For this assay, the target named is chimeric LILRB2-PILRβ receptor (aa 24-458 of hLILRB2) on mouse T cell hybridoma NFAT-GFP reporter cells (human) (UniProt Q8N423). The assay can be described thus: cell-based or functional assay.
Sequence of chimeric LILRB2-PILRβ receptor (aa 24-458 of hLILRB2) on mouse T cell hybridoma NFAT-GFP reporter cells (human) (Q8N423 other isoform, or with tags, fused parts or gaps mutant limits assumed, form in doubt): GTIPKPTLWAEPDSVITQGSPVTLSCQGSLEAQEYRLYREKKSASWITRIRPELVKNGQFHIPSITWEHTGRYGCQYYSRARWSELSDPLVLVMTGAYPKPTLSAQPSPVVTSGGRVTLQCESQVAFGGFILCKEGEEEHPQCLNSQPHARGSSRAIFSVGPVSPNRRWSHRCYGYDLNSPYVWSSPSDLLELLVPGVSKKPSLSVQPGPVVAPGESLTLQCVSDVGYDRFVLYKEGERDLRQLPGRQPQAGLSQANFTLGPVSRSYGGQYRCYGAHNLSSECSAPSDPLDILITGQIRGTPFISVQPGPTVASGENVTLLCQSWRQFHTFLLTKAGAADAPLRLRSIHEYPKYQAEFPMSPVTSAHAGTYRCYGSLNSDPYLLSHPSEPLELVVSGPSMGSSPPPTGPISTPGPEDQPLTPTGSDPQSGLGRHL

As for “GST-human Angptl2, bacterially expressed (GST-Angptl2-FLAG) (from UniProt Q9UKU9 23-493) (ligand)”, the GFP expression of LILRB2 reporter cells, immobilized monomeric GST-Angptl2 stood at 20%; the GFP expression of LILRB2 reporter cells, soluble monomeric GST-Angptl2 worked out at 3.56%; the GFP induction of LILRB2 reporter cells by immobilized Angptl2, no antibody is 19.9%.

The values above are taken from patent US20170260508A1.
